Where no end group is shown, it is not given here. [ ]: non-standard residue; d: D form. K(dye 2) = not defined here; K(tet) = not defined here; Orn = NCCC[C@H](N)C(=O)O; C12 = C12 group (lipid); C11 = C11 lipid
Assays:
protein kinase Akt3/PKBγ = protein kinase Akt3/PKBγ (Homo sapiens, UniProt Q9Y243); test: Fluorogenic kinase assay with Akt3/PKBγ, rate of reaction, two vs one hydrophobic moiety; format: biochemical; conditions: compared with one-hydrophobic-moiety substrate C15OOOK(dye2)RPRTSSF-NH2; substrates 8 μM, Akt3/PKBγ 6 nM, ATP 100 μM (FIG. 5)
Chain of protein kinase Akt3/PKBγ (Q9Y243 whole entry): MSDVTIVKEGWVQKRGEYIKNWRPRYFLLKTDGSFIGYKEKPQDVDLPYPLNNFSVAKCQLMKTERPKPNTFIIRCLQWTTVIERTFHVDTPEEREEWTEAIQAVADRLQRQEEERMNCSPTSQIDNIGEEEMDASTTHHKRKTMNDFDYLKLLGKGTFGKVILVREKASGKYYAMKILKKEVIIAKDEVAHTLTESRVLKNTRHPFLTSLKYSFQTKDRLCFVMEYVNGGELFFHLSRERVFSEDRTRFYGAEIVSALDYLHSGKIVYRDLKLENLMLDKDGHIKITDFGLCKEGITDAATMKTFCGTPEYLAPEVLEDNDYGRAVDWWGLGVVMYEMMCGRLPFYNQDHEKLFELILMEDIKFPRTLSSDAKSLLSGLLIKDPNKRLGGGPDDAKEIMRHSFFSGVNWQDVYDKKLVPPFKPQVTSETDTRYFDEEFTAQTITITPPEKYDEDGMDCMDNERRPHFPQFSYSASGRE
Method: Tet is the fluorescein dye 2′,7′,4,7-tetachloro-5-carboxy fluorescein.
(§1) Kinase assays were performed using Corning 384-well, black, non-binding surface (NBS), microwell plates. Fluorescence was read in real time using a […] Gemini XS plate reader, with excitation and emission set at 500 and 550 respectively. The plate was read every minute for one hour at ambient temperature
Concentrations of dye-labeled peptides were determined by dilution of the purified peptides into dimethylformamide (200 μL) with 1 M NaOH (5 μL) and measuring the absorbance of either 5-carboxy-2′,7′-dipyridyl-sulfonefluorescein (i.e. dye2) at its absorbance maximum (548 nm) or 2′,7′,4,7-tetachloro-5-carboxy fluorescein (i.e. 2′,7′-dichloro-5-carboxy-4,7-dichlorofluorescein or “tet”) at its absorbance maximum (541 nm). The extinction coefficient of both dyes was assumed to be 80,000 cm^−1M^−1.

[1] = side chain (imidazole of histidine; cysteine); cited from earlier work
protein kinase p38βII = protein kinase p38βII (Homo sapiens, UniProt Q15759); test: Fluorogenic kinase assay with p38βII, rates at varying ATP fitted to Michaelis-Menton equation; format: biochemical; conditions: p38bII 14 nM; 20 mM Tris pH 7.4, MgCl2 5 mM, DTT 5 mM; read 1 hour; read-out: apparent Km of ATP
Chain of protein kinase p38βII (Q15759 whole entry): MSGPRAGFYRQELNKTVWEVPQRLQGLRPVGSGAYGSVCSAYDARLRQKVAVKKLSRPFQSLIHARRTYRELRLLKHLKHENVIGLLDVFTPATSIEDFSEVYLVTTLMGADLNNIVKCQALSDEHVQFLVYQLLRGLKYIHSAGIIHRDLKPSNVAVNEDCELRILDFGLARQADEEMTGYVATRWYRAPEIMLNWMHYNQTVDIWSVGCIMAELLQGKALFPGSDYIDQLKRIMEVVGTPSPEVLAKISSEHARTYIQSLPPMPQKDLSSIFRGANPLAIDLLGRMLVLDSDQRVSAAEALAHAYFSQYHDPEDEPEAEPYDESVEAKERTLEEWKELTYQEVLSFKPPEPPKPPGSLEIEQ
Text: A comparison of the rates of reaction for a kinase substrate comprising two hydrophobic moieties (i.e. C12OOK(dye 2)RRIPLSPOOK(C12)NH2, (peptide disclosed as SEQ ID NO: 20) used at a concentration of 2 μm and referred to herein as compound 2) versus a kinase substrate comprising a single hydrophobic moiety (i.e.C16OOK(dye 2)[…]2, (peptide disclosed as SEQ ID NO: 20) used at a concentration of 4 μm; and referred to herein as compound 4) for several concentrations of ATP (0, 5, 10, 20, 50, 100, 200, and 500 μM) is shown in FIGS. 4A and 4B. […] The rates of the reaction were fitted to the Michaelis-Menton equation. […]
as §1
Concentrations of dye-labeled peptides were determined by dilution of the purified peptides into dimethylformamide (200 μL) with 1 M NaOH (5 μL) and measuring the absorbance of either 5-carboxy-2′,7′-dipyridyl-sulfonefluorescein (i.e. dye2) at its absorbance maximum (548 nm) or 2′,7′,4,7-tetachloro-5-carboxy fluorescein (i.e. 2′,7′-dichloro-5-carboxy-4,7-dichlorofluorescein or “tet”) at its absorbance maximum (541 nm). […]

Row | Compound | Km (protein kinase p38βII) | also measured
1 | C11OOK(tet)ArgProArgThrSerSerPheOOK(C11)NH2 ({C11-Orn-Orn-K(tet)}-RPRTSSF[Orn][Orn]-{K(C11)-NH2}; not fully specified; printed as C11OOK(tet)ArgProArgThrSerSerPheOOK(C11)NH2; reading uncertain) [compound 3, kinase substrate for Akt3/PKBγ with two C11 hydrophobic moieties and tet dye] | – | signal to noise ratio (protein kinase Akt3/PKBγ): improved signal to noise ratio
2 | N[C@@H](Cc1c[nH]cn1)C(=O)O [Histidine (H), Histidine] | – | pK [1]: about 7
3 | C16OOK(dye 2)RRIPLSPNH2 (RRIPLSP-NH2; not fully specified (N-terminus); printed as C16OOK(dye 2)RRIPLSPNH2) [compound 4, comparison kinase substrate with a single hydrophobic moiety] | > 200 µM | –
4 | C12OOK(dye 2)ArgArgIleProLeuSerProOOK(C12)NH2 ({C12-Orn-Orn-K(dye 2)}-RRIPLSP[Orn][Orn]-{K(C12)-NH2}; not fully specified; printed as C12OOK(dye 2)ArgArgIleProLeuSerProOOK(C12)NH2; reading uncertain) [compound 2, kinase substrate for p38βII with two C12 hydrophobic moieties and Dye 2] | 90 µM | –

From patent publication US7304146B2, “Fluorogenic kinase assays and substrates” (Applera Corporation, priority 2004, dated 2007)
